# Measurements reported in paper PMC7367873, “Dissecting the sequence determinants for dephosphorylation by the catalytic subunits of phosphatases PP1 and PP2A” (Nature Communications, 2020).
# B1: ARHGEF7 (protein, UniProt Q14155 1-803, looked up)
# Rho guanine nucleotide …: MNSAEQTVTWLITLGVLESPKKTISDPEGFLQASLKDGVVLCRLLERLLPGTIEKVYPEPRSESECLSNIREFLRGCGASLRLELLFPPSQPPQHLVTTILLSASTFDANDLYQGQNFNKVLSSLVTLNKVTADIGLGSDSVCARPSSHRIKSFDSLGSQSLHTRTSKLFQGQYRSLDMTDNSNNQLVVRAKFNFQQTNEDELSFSKGDVIHVTRVEEGGWWEGTLNGRTGWFPSNYVREVKASEKPVSPKSGTLKSPPKGFDTTAINKSYYNVVLQNILETENEYSKELQTVLSTYLRPLQTSEKLSSANISYLMGNLEEICSFQQMLVQSLEECTKLPEAQQRVGGCFLNLMPQMKTLYLTYCANHPSAVNVLTEHSEELGEFMETKGASSPGILVLTTGLSKPFMRLDKYPTLLKELERHMEDYHTDRQDIQKSMAAFKNLSAQCQEVRKRKELELQILTEAIRNWEGDDIKTLGNVTYMSQVLIQCAGSEEKNERYLLLFPNVLLMLSASPRMSGFIYQGKLPTTGMTITKLEDSENHRNAFEISGSMIERILVSCNNQQDLQEWVEHLQKQTKVTSVGNPTIKPHSVPSHTLPSHPVTPSSKHADSKPAPLTPAYHTLPHPSHHGTPHTTINWGPLEPPKTPKPWSLSCLRPAPPLRPSAALCYKEDLSKSPKTMKKLLPKRKPERKPSDEEFASRKSTAALEEDAQILKVIEAYCTSAKTRQTLNSTWQGTDLMHNHVLADDDQPSLDSLGRRSSLSRLEPSDLSEDSDYDSIWTAHSYRMGSTSRKSCCSYISHQN
# B2: FAM53B (protein, UniProt Q14153 1-422, looked up)
# Protein FAM53B: MVMVLSESLSTRGADSIACGTFSRELHTPKKMSQGPTLFSCGIMENDRWRDLDRKCPLQIDQPSTSIWECLPEKDSSLWHREAVTACAVTSLIKDLSISDHNGNPSAPPSKRQCRSLSFSDEMSSCRTSWRPLGSKVWTPVEKRRCYSGGSVQRYSNGFSTMQRSSSFSLPSRANVLSSPCDQAGLHHRFGGQPCQGVPGSAPCGQAGDTWSPDLHPVGGGRLDLQRSLSCSHEQFSFVEYCPPSANSTPASTPELARRSSGLSRSRSQPCVLNDKKVGVKRRRPEEVQEQRPSLDLAKMAQNCQTFSSLSCLSAGTEDCGPQSPFARHVSNTRAWTALLSASGPGGRTPAGTPVPEPLPPSFDDHLACQEDLSCEESDSCALDEDCGRRAEPAAAWRDRGAPGNSLCSLDGELDIEQIEKN
# B3: SKIV2L2 (protein, UniProt P42285 2-1042, looked up)
# Exosome RNA helicase MTR4: ADAFGDELFSVFEGDSTTAAGTKKDKEKDKGKWKGPPGSADKAGKRFDGKLQSESTNNGKNKRDVDFEGTDEPIFGKKPRIEESITEDLSLADLMPRVKVQSVETVEGCTHEVALPAEEDYLPLKPRVGKAAKEYPFILDAFQREAIQCVDNNQSVLVSAHTSAGKTVCAEYAIALALREKQRVIFTSPIKALSNQKYREMYEEFQDVGLMTGDVTINPTASCLVMTTEILRSMLYRGSEVMREVAWVIFDEIHYMRDSERGVVWEETIILLPDNVHYVFLSATIPNARQFAEWICHLHKQPCHVIYTDYRPTPLQHYIFPAGGDGLHLVVDENGDFREDNFNTAMQVLRDAGDLAKGDQKGRKGGTKGPSNVFKIVKMIMERNFQPVIIFSFSKKDCEAYALQMTKLDFNTDEEKKMVEEVFSNAIDCLSDEDKKLPQVEHVLPLLKRGIGIHHGGLLPILKETIEILFSEGLIKALFATETFAMGINMPARTVLFTNARKFDGKDFRWISSGEYIQMSGRAGRRGMDDRGIVILMVDEKMSPTIGKQLLKGSADPLNSAFHLTYNMVLNLLRVEEINPEYMLEKSFYQFQHYRAIPGVVEKVKNSEEQYNKIVIPNEESVVIYYKIRQQLAKLGKEIEEYIHKPKYCLPFLQPGRLVKVKNEGDDFGWGVVVNFSKKSNVKPNSGELDPLYVVEVLLRCSKESLKNSATEAAKPAKPDEKGEMQVVPVLVHLLSAISSVRLYIPKDLRPVDNRQSVLKSIQEVQKRFPDGIPLLDPIDDMGIQDQGLKKVIQKVEAFEHRMYSHPLHNDPNLETVYTLCEKKAQIAIDIKSAKRELKKARTVLQMDELKCRKRVLRRLGFATSSDVIEMKGRVACEISSADELLLTEMMFNGLFNDLSAEQATALLSCFVFQENSSEMPKLTEQLAGPLRQMQECAKRIAKVSAEAKLEIDEETYLSSFKPHLMDVVYTWATGATFAHICKMTDVFEGSIIRCMRRLEELLRQMCQAAKAIGNTELENKFAEGITKIKRDIVFAASLYL
# B4: ZCCHC8 (protein, UniProt Q6NZY4 2-707, looked up)
# Zinc finger CCHC …: AAEVYFGDLELFEPFDHPEESIPKPVHTRFKDDDGDEEDENGVGDAELRERLRQCEETIEQLRAENQELKRKLNILTRPSGILVNDTKLDGPILQILFMNNAISKQYHQEIEEFVSNLVKRFEEQQKNDVEKTSFNLLPQPSSIVLEEDHKVEESCAIKNNKEAFSVVGSVLYFTNFCLDKLGQPLLNENPQLSEGWEIPKYHQVFSHIVSLEGQEIQVKAKRPKPHCFNCGSEEHQMKDCPMPRNAARISEKRKEYMDACGEANNQNFQQRYHAEEVEERFGRFKPGVISEELQDALGVTDKSLPPFIYRMRQLGYPPGWLKEAELENSGLALYDGKDGTDGETEVGEIQQNKSVTYDLSKLVNYPGFNISTPRGIPDEWRIFGSIPMQACQQKDVFANYLTSNFQAPGVKSGNKRSSSHSSPGSPKKQKNESNSAGSPADMELDSDMEVPHGSQSSESFQFQPPLPPDTPPLPRGTPPPVFTPPLPKGTPPLTPSDSPQTRTASGAVDEDALTLEELEEQQRRIWAALEQAESVNSDSDVPVDTPLTGNSVASSPCPNELDLPVPEGKTSEKQTLDEPEVPEIFTKKSEAGHASSPDSEVTSLCQKEKAELAPVNTEGALLDNGSVVPNCDISNGGSQKLFPADTSPSTATKIHSPIPDMSKFATGITPFEFENMAESTGMYLRIRSLLKNSPRNQQKNKKASE
# B5: PDLIM5 (protein, UniProt Q96HC4 2-596, looked up)
# PDZ and LIM domain protein 5: SNYSVSLVGPAPWGFRLQGGKDFNMPLTISSLKDGGKAAQANVRIGDVVLSIDGINAQGMTHLEAQNKIKGCTGSLNMTLQRASAAPKPEPVPVQKGEPKEVVKPVPITSPAVSKVTSTNNMAYNKAPRPFGSVSSPKVTSIPSPSSAFTPAHATTSSHASPSPVAAVTPPLFAASGLHANANLSADQSPSALSAGKTAVNVPRQPTVTSVCSETSQELAEGQRRGSQGDSKQQNGPPRKHIVERYTEFYHVPTHSDASKKRLIEDTEDWRPRTGTTQSRSFRILAQITGTEHLKESEADNTKKANNSQEPSPQLASSVASTRSMPESLDSPTSGRPGVTSLTAAAAFKPVGSTGVIKSPSWQRPNQGVPSTGRISNSATYSGSVAPANSALGQTQPSDQDTLVQRAEHIPAGKRTPMCAHCNQVIRGPFLVALGKSWHPEEFNCAHCKNTMAYIGFVEEKGALYCELCYEKFFAPECGRCQRKILGEVISALKQTWHVSCFVCVACGKPIRNNVFHLEDGEPYCETDYYALFGTICHGCEFPIEAGDMFLEALGYTWHDTCFVCSVCCESLEGQTFFSKKDKPLCKKHAHSVNF
# B6: TSC1 (protein, UniProt Q92574 1-1164, looked up)
# Hamartin: MAQQANVGELLAMLDSPMLGVRDDVTAVFKENLNSDRGPMLVNTLVDYYLETSSQPALHILTTLQEPHDKHLLDRINEYVGKAATRLSILSLLGHVIRLQPSWKHKLSQAPLLPSLLKCLKMDTDVVVLTTGVLVLITMLPMIPQSGKQHLLDFFDIFGRLSSWCLKKPGHVAEVYLVHLHASVYALFHRLYGMYPCNFVSFLRSHYSMKENLETFEEVVKPMMEHVRIHPELVTGSKDHELDPRRWKRLETHDVVIECAKISLDPTEASYEDGYSVSHQISARFPHRSADVTTSPYADTQNSYGCATSTPYSTSRLMLLNMPGQLPQTLSSPSTRLITEPPQATLWSPSMVCGMTTPPTSPGNVPPDLSHPYSKVFGTTAGGKGTPLGTPATSPPPAPLCHSDDYVHISLPQATVTPPRKEERMDSARPCLHRQHHLLNDRGSEEPPGSKGSVTLSDLPGFLGDLASEEDSIEKDKEEAAISRELSEITTAEAEPVVPRGGFDSPFYRDSLPGSQRKTHSAASSSQGASVNPEPLHSSLDKLGPDTPKQAFTPIDLPCGSADESPAGDRECQTSLETSIFTPSPCKIPPPTRVGFGSGQPPPYDHLFEVALPKTAHHFVIRKTEELLKKAKGNTEEDGVPSTSPMEVLDRLIQQGADAHSKELNKLPLPSKSVDWTHFGGSPPSDEIRTLRDQLLLLHNQLLYERFKRQQHALRNRRLLRKVIKAAALEEHNAAMKDQLKLQEKDIQMWKVSLQKEQARYNQLQEQRDTMVTKLHSQIRQLQHDREEFYNQSQELQTKLEDCRNMIAELRIELKKANNKVCHTELLLSQVSQKLSNSESVQQQMEFLNRQLLVLGEVNELYLEQLQNKHSDTTKEVEMMKAAYRKELEKNRSHVLQQTQRLDTSQKRILELESHLAKKDHLLLEQKKYLEDVKLQARGQLQAAESRYEAQKRITQVFELEILDLYGRLEKDGLLKKLEEEKAEAAEAAEERLDCCNDGCSDSMVGHNEEASGHNGETKTPRPSSARGSSGSRGGGGSSSSSSELSTPEKPPHQRAGPFSSRWETTMGEASASIPTTVGSLPSSKSFLGMKARELFRNKSESQCDEDGMTSSLSESLKTELGKDLGVEAKIPLNLDGPHPSPPTPDSVGQLHIMDYNETHHEHS
# B7: SHCBP1 (protein, UniProt Q8NEM2 2-672, looked up)
# SHC SH2 domain-binding …: ADGSLTGGGLEAAAMAPERMGWAVEQELASLEKGLFQDEDSCSDCSYRDKPGSSLQSFMPEGKTFFPEIFQTNQLLFYERFRAYQDYILADCKASEVQEFTAEFLEKVLEPSGWRAVWHTNVFKVLVEITDVDFAALKAVVRLAEPYLCDSQVSTFTMECMKELLDLKEHRLPLQELWVVFDDSGVFDQTALAIEHVRFFYQNIWRSWDEEEEDEYDYFVRCVEPRLRLHYDILEDRVPSGLIVDYHNLLSQCEESYRKFLNLRSSLSNCNSDSEQENISMVEGLKLYSEMEQLKQKLKLIENPLLRYVFGYQKNSNIQAKGVRSSGQKITHVVSSTMMAGLLRSLLTDRLCQEPGEEEREIQFHSDPLSAINACFEGDTVIVCPGHYVVHGTFSIADSIELEGYGLPDDIVIEKRGKGDTFVDCTGADIKISGIKFVQHDAVEGILIVHRGKTTLENCVLQCETTGVTVRTSAEFLMKNSDLYGAKGAGIEIYPGSQCTLSDNGIHHCKEGILIKDFLDEHYDIPKISMVNNIIHNNEGYGVVLVKPTIFSDLQENAEDGTEENKALKIQTSGEPDVAERVDLEELIECATGKMELCARTDPSEQVEGNCEIVNELIAASTQKGQIKKKRLSELGITQADDNLMSQEMFVGIVGNQFKWNGKGSFGTFLF
# Tested on: GFP-14-3-3β and its binding proteins
# Assay: GFP-14-3-3β co-IP with LC-MS/MS label-free quantification, untreated versus PP1c-treated
# Design: species or system human
# Details: pairwise comparison PP1 vs untreated, student's t-test; 3 replicates each; LC-MS/MS label-free quantification
row,Molecule,"Difference (log2), PP1 vs untreated"
1,B1,-3.042 log2
2,B2,-3.06 log2
3,B3,-3.184 log2
4,B4,-3.239 log2
5,B5,-3.258 log2
6,B6,-3.2926 log2
7,B7,-3.298 log2

# Tested on: GFP-14-3-3β
# Assay: GFP-14-3-3β co-IP with LC-MS/MS, untreated GFP-14-3-3β versus GFP control (14-3-3 interactome)
# Type: binding, human
# Details: pairwise comparison untreated GFP-14-3-3β vs GFP, student's t-test; 3 replicates each; LC-MS/MS label-free quantification
row,Molecule,"Difference (log2), untreated vs GFP"
1,B1,2.997 log2
2,B2,2.4159 log2
3,B3,4.62 log2
4,B4,4.409 log2
5,B5,1.189 log2
6,B6,2.521 log2
7,B7,4.099 log2
